Test results: patent publication US20140357577A1, “HIV Membrane Fusion Inhibitors” (priority 2011, published 2014)
Starred links: 1 amine or outer side, 2 acyl side, 3 side chain; linkers in the order of their positions; H or OH if unused. Positions of bridges follow the written chain, without caps; N, C: chain ends. Non-standard residues stand in square brackets, D forms with d. *: point of attachment. pXylylene = c1cc(C[*:2])ccc1C[*:1]; Palmitoyl = CCCCCCCCCCCCCCCC(=O)*; tBuAla = CC(C)(C)C[C@H](N)C(=O)O; Cha = N[C@@H](CC1CCCCC1)C(=O)O; Suc = O=C(CCC(=O)[*:2])[*:1]; B1 = not defined here

B1: peptide 57 (peptide)
peptide: Ac-ACYIACIEALIRAAQEQQEKNEAALR-NH2
modifications: linker 2-6 via pXylylene
SMILES: CC[C@H](C)[C@@H]1NC(=O)[C@H](Cc2ccc(O)cc2)NC(=O)[C@@H](NC(=O)[C@H](C)NC(C)=O)CSCc2ccc(cc2)CSC[C@@H](C(=O)N[C@H](C(=O)N[C@@H](CCC(=O)O)C(=O)N[C@@H](C)C(=O)N[C@@H](CC(C)C)C(=O)N[C@H](C(=O)N[C@@H](CCCNC(=N)N)C(=O)N[C@@H](C)C(=O)N[C@@H](C)C(=O)N[C@@H](CCC(N)=O)C(=O)N[C@@H](CCC(=O)O)C(=O)N[C@@H](CCC(N)=O)C(=O)N[C@@H](CCC(N)=O)C(=O)N[C@@H](CCC(=O)O)C(=O)N[C@@H](CCCCN)C(=O)N[C@@H](CC(N)=O)C(=O)N[C@@H](CCC(=O)O)C(=O)N[C@@H](C)C(=O)N[C@@H](C)C(=O)N[C@@H](CC(C)C)C(=O)N[C@@H](CCCNC(=N)N)C(N)=O)[C@@H](C)CC)[C@@H](C)CC)NC(=O)[C@H](C)NC1=O
B2: peptide 61 (peptide)
peptide: Ac-ACYFACIEALIRAAQEQQEKNEAALR-NH2
modifications: linker 2-6 via pXylylene
SMILES: CC[C@H](C)[C@H](NC(=O)[C@H](CC(C)C)NC(=O)[C@H](C)NC(=O)[C@H](CCC(=O)O)NC(=O)[C@@H](NC(=O)[C@@H]1CSCc2ccc(cc2)CSC[C@H](NC(=O)[C@H](C)NC(C)=O)C(=O)N[C@@H](Cc2ccc(O)cc2)C(=O)N[C@@H](Cc2ccccc2)C(=O)N[C@@H](C)C(=O)N1)[C@@H](C)CC)C(=O)N[C@@H](CCCNC(=N)N)C(=O)N[C@@H](C)C(=O)N[C@@H](C)C(=O)N[C@@H](CCC(N)=O)C(=O)N[C@@H](CCC(=O)O)C(=O)N[C@@H](CCC(N)=O)C(=O)N[C@@H](CCC(N)=O)C(=O)N[C@@H](CCC(=O)O)C(=O)N[C@@H](CCCCN)C(=O)N[C@@H](CC(N)=O)C(=O)N[C@@H](CCC(=O)O)C(=O)N[C@@H](C)C(=O)N[C@@H](C)C(=O)N[C@@H](CC(C)C)C(=O)N[C@@H](CCCNC(=N)N)C(N)=O
B3: peptide 67 (peptide)
peptide: Suc-ACYAACIEALIRAAQEQQEKNEAALR-NH2
modifications: linker 2-6 via pXylylene
SMILES: CC[C@H](C)[C@H](NC(=O)[C@H](CC(C)C)NC(=O)[C@H](C)NC(=O)[C@H](CCC(=O)O)NC(=O)[C@@H](NC(=O)[C@@H]1CSCc2ccc(cc2)CSC[C@H](NC(=O)[C@H](C)NC(=O)CCC(=O)O)C(=O)N[C@@H](Cc2ccc(O)cc2)C(=O)N[C@@H](C)C(=O)N[C@@H](C)C(=O)N1)[C@@H](C)CC)C(=O)N[C@@H](CCCNC(=N)N)C(=O)N[C@@H](C)C(=O)N[C@@H](C)C(=O)N[C@@H](CCC(N)=O)C(=O)N[C@@H](CCC(=O)O)C(=O)N[C@@H](CCC(N)=O)C(=O)N[C@@H](CCC(N)=O)C(=O)N[C@@H](CCC(=O)O)C(=O)N[C@@H](CCCCN)C(=O)N[C@@H](CC(N)=O)C(=O)N[C@@H](CCC(=O)O)C(=O)N[C@@H](C)C(=O)N[C@@H](C)C(=O)N[C@@H](CC(C)C)C(=O)N[C@@H](CCCNC(=N)N)C(N)=O
B4: peptide 54 (peptide)
peptide: Ac-ACYLACIEALIRAAQEQQEKNEAALL-NH2
modifications: linker 2-6 via pXylylene
SMILES: CC[C@H](C)[C@H](NC(=O)[C@H](CC(C)C)NC(=O)[C@H](C)NC(=O)[C@H](CCC(=O)O)NC(=O)[C@@H](NC(=O)[C@@H]1CSCc2ccc(cc2)CSC[C@H](NC(=O)[C@H](C)NC(C)=O)C(=O)N[C@@H](Cc2ccc(O)cc2)C(=O)N[C@@H](CC(C)C)C(=O)N[C@@H](C)C(=O)N1)[C@@H](C)CC)C(=O)N[C@@H](CCCNC(=N)N)C(=O)N[C@@H](C)C(=O)N[C@@H](C)C(=O)N[C@@H](CCC(N)=O)C(=O)N[C@@H](CCC(=O)O)C(=O)N[C@@H](CCC(N)=O)C(=O)N[C@@H](CCC(N)=O)C(=O)N[C@@H](CCC(=O)O)C(=O)N[C@@H](CCCCN)C(=O)N[C@@H](CC(N)=O)C(=O)N[C@@H](CCC(=O)O)C(=O)N[C@@H](C)C(=O)N[C@@H](C)C(=O)N[C@@H](CC(C)C)C(=O)N[C@@H](CC(C)C)C(N)=O
B5: peptide 55 (peptide)
peptide: Suc-ENYLRLIEELIRKAQEQQEKNEAALRGSGK(Palmitoyl)-NH2
SMILES: CCCCCCCCCCCCCCCC(=O)NCCCC[C@H](NC(=O)CNC(=O)[C@H](CO)NC(=O)CNC(=O)[C@H](CCCNC(=N)N)NC(=O)[C@H](CC(C)C)NC(=O)[C@H](C)NC(=O)[C@H](C)NC(=O)[C@H](CCC(=O)O)NC(=O)[C@H](CC(N)=O)NC(=O)[C@H](CCCCN)NC(=O)[C@H](CCC(=O)O)NC(=O)[C@H](CCC(N)=O)NC(=O)[C@H](CCC(N)=O)NC(=O)[C@H](CCC(=O)O)NC(=O)[C@H](CCC(N)=O)NC(=O)[C@H](C)NC(=O)[C@H](CCCCN)NC(=O)[C@H](CCCNC(=N)N)NC(=O)[C@@H](NC(=O)[C@H](CC(C)C)NC(=O)[C@H](CCC(=O)O)NC(=O)[C@H](CCC(=O)O)NC(=O)[C@@H](NC(=O)[C@H](CC(C)C)NC(=O)[C@H](CCCNC(=N)N)NC(=O)[C@H](CC(C)C)NC(=O)[C@H](Cc1ccc(O)cc1)NC(=O)[C@H](CC(N)=O)NC(=O)[C@H](CCC(=O)O)NC(=O)CCC(=O)O)[C@@H](C)CC)[C@@H](C)CC)C(N)=O
B6: peptide 63 (peptide)
peptide: Ac-ACYWACIEALIRAAQEQQEKNEAALR-NH2
modifications: linker 2-6 via pXylylene
SMILES: CC[C@H](C)[C@H](NC(=O)[C@H](CC(C)C)NC(=O)[C@H](C)NC(=O)[C@H](CCC(=O)O)NC(=O)[C@@H](NC(=O)[C@@H]1CSCc2ccc(cc2)CSC[C@H](NC(=O)[C@H](C)NC(C)=O)C(=O)N[C@@H](Cc2ccc(O)cc2)C(=O)N[C@@H](Cc2c[nH]c3ccccc23)C(=O)N[C@@H](C)C(=O)N1)[C@@H](C)CC)C(=O)N[C@@H](CCCNC(=N)N)C(=O)N[C@@H](C)C(=O)N[C@@H](C)C(=O)N[C@@H](CCC(N)=O)C(=O)N[C@@H](CCC(=O)O)C(=O)N[C@@H](CCC(N)=O)C(=O)N[C@@H](CCC(N)=O)C(=O)N[C@@H](CCC(=O)O)C(=O)N[C@@H](CCCCN)C(=O)N[C@@H](CC(N)=O)C(=O)N[C@@H](CCC(=O)O)C(=O)N[C@@H](C)C(=O)N[C@@H](C)C(=O)N[C@@H](CC(C)C)C(=O)N[C@@H](CCCNC(=N)N)C(N)=O
B7: peptide 62 (peptide)
peptide: Ac-ACYVACIEALIRAAQEQQEKNEAALR-NH2
modifications: linker 2-6 via pXylylene
SMILES: CC[C@H](C)[C@H](NC(=O)[C@H](CC(C)C)NC(=O)[C@H](C)NC(=O)[C@H](CCC(=O)O)NC(=O)[C@@H](NC(=O)[C@@H]1CSCc2ccc(cc2)CSC[C@H](NC(=O)[C@H](C)NC(C)=O)C(=O)N[C@@H](Cc2ccc(O)cc2)C(=O)N[C@@H](C(C)C)C(=O)N[C@@H](C)C(=O)N1)[C@@H](C)CC)C(=O)N[C@@H](CCCNC(=N)N)C(=O)N[C@@H](C)C(=O)N[C@@H](C)C(=O)N[C@@H](CCC(N)=O)C(=O)N[C@@H](CCC(=O)O)C(=O)N[C@@H](CCC(N)=O)C(=O)N[C@@H](CCC(N)=O)C(=O)N[C@@H](CCC(=O)O)C(=O)N[C@@H](CCCCN)C(=O)N[C@@H](CC(N)=O)C(=O)N[C@@H](CCC(=O)O)C(=O)N[C@@H](C)C(=O)N[C@@H](C)C(=O)N[C@@H](CC(C)C)C(=O)N[C@@H](CCCNC(=N)N)C(N)=O
B8: peptide 56 (peptide)
peptide: Ac-ACYLACIEALIRAAQEQQEKNEAALR-NH2
modifications: linker 2-6 via pXylylene
SMILES: CC[C@H](C)[C@H](NC(=O)[C@H](CC(C)C)NC(=O)[C@H](C)NC(=O)[C@H](CCC(=O)O)NC(=O)[C@@H](NC(=O)[C@@H]1CSCc2ccc(cc2)CSC[C@H](NC(=O)[C@H](C)NC(C)=O)C(=O)N[C@@H](Cc2ccc(O)cc2)C(=O)N[C@@H](CC(C)C)C(=O)N[C@@H](C)C(=O)N1)[C@@H](C)CC)C(=O)N[C@@H](CCCNC(=N)N)C(=O)N[C@@H](C)C(=O)N[C@@H](C)C(=O)N[C@@H](CCC(N)=O)C(=O)N[C@@H](CCC(=O)O)C(=O)N[C@@H](CCC(N)=O)C(=O)N[C@@H](CCC(N)=O)C(=O)N[C@@H](CCC(=O)O)C(=O)N[C@@H](CCCCN)C(=O)N[C@@H](CC(N)=O)C(=O)N[C@@H](CCC(=O)O)C(=O)N[C@@H](C)C(=O)N[C@@H](C)C(=O)N[C@@H](CC(C)C)C(=O)N[C@@H](CCCNC(=N)N)C(N)=O

target: gp41 of HIV-1 strain HXB2D with mutation V38A (HIV-1 strain HXB2D, UniProt P04578); assay: cell-based or functional assay

Going from B1 to Ac-ACY[Cha]ACIEALIRAAQEQQEKNEAALR-NH2 (linker 2-6 via B1; reading uncertain) [peptide 59], the “fold change in EC50, HIV-HXB2D V38A mutant” value (shortened to “fold change in EC50”) falls from 23 fold to 18 fold.

First: B2
Second: B3
The “fold change in EC50” value of the first is lower: 20 fold for the first, 30 fold for the second.

Compared with Ac-ACY[tBuAla]ACIEALIRAAQEQQEKNEAALR-NH2 (linker 2-6 via B1; reading uncertain) [peptide 60], Ac-ACYAACIEALIRAAQEQQEKNEAALR-NH2 (linker 2-6 via meta‑xylene) [peptide 65] is lower in “fold change in EC50” value: 18 fold for the first, 16 fold for the second.

Compared with Ac-ACYAACIEALIRAAQEQQEKNEAALR-NH2 (linker 2-6 via 2,7‑dimethylnaphthyl) [peptide 66], B4 is lower in “fold change in EC50” value: 66 fold for the first, 31 fold for the second.

Going from Ac-ACYAACIEALIRAAQEQQEKNEAALR-NH2 (linker 2-6 via ortho‑xylene) [peptide 64] to B5, the “fold change in EC50” value falls from 15 fold to 1 fold.

Going from B6 to B7, the “fold change in EC50” value falls from 22 fold to 15 fold.

Ac-ANYAALIEALIRAAQEQQEKNEAALR-NH2 [peptide 2] and B8 are the same in “fold change in EC50” value: 61 fold for the first, 61 fold for the second.
